Assay results taken from patent publication US20260250412A1 (GENEQUANTUM HEALTHCARE SUZHOU, published 2026).

T1: recombinant extracellular domain of human TROP2 (human, UniProt P09758 27-274)
T1 construct: extracellular domain; also called Human Trop 2 ECD; Trop2 ECD
T1 sequence (looked up): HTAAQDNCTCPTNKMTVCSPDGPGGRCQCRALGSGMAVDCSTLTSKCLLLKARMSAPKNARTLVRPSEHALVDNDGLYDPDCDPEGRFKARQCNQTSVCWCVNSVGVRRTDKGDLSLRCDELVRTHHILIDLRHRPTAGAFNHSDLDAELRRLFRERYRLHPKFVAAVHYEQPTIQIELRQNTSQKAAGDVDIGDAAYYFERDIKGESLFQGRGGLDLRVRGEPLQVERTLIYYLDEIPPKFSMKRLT


Legend:
[1] = target: T1, recombinant extracellular domain of …; test: SPR (Biacore T200), antibody captured on Protein A chip, TROP2 ECD as analyte, 1:1 model, 25 C
Experimental: Binding kinetics and affinity analysis were performed. Surface Plasmon Resonance (SPR) analysis was performed on a Biacore T200 (GE healthcare) with a Sensor Chip Protein A (GE healthcare) following manufacturer's instructions. All measurements were performed at 25° C. in the HBS-EP⁺ buffer (10 mM HEPES, pH 7.4, 150 mM NaCl, 3 mM EDTA, and 0.05% surfactant P20). About 110-140 RU (Resonance unit) of each of the purified antibodies was captured on flow cells 2 and 4 (i.e., the reaction surface) of the sensor chip, respectively. Flow cells 1 and 3 were treated with the HBS-EP⁺ buffer to serve as reference surfaces.
Serial dilutions of the recombinant extracellular domain of human TROP2 (i.e., the analyte) (Acrobio system) (243, 81, 27, 9, 3, 1, 0.333, and 0.111 nM, respectively) were prepared in HBS-EP⁺ buffer. Capturing of the antibodies was followed by a three-minute injection (association phase) of serial dilutions of TROP2 at a flow rate of 30 μL/min and ten minutes of buffer flow (dissociation phase). The chip surface was regenerated by two pulses of 30-second injection of 10 mM Glycine-HCl pH 1.5 at a flow rate of 50 μL/min. The collected data were processed on a Biacore T200 Evaluation software using methods known in the art, comprising the following steps: (1) setting the response on the y-axis and the start of the injection on the x-axis to zero, (2) performing double referencing by firstly subtracting the reference surface data from the reaction surface data to get the analyte injection curves, and then subtracting the buffer injection curves from the analyte injection curves, and (3) performing the kinetic analysis using the 1:1 binding model with a global fit.

[2] = target: T1, recombinant extracellular domain of …; test: ELISA on plate-coated human Trop2 ECD (0.5 ug/mL), detection with goat anti-human Fc-HRP, TMB, absorbance at 450 nm
Experimental: Human Trop 2 ECD at concentration of 0.5 μg/mL was coated on 96-well plates at 4° C. for overnight. The plates were then blocked with 3% BSA-PBST for 1 h at room temperature. […] After incubation goat anti-human FC secondary antibody (HRP) (Sinobiological, SSA001) was added at a ratio of 1:100000 and incubated at room temperature for 60 min again. Following the wash, the plate was treated with TMB solution (Sigma, T0440) as an HRP substrate, and the reaction was stopped with 1 M H₂SO₄. The absorbance for each well was detected at 450 nm wavelength.

Row | Binder | Kd [1] [nM] | EC50 (read off the curve) [2] [ng/mL]
1 | Datopotamab (antibody, human IgG1, kappa, V domains shown, expressed in HEK293F; also called DS1062a Ab; DS1062's antibody) VH: QVQLVQSGAEVKKPGASVKVSCKASGYTFTTAGMQWVRQAPGQGLEWMGWINTHSGVPKYAEDFKGRVTISADTSTSTAYLQLSSLKSEDTAVYYCARSGFGSSYWYFDVWGQGTLVTVSS VL: DIQMTQSPSSLSASVGDRVTITCKASQDVSTAVAWYQQKPGKAPKLLIYSASYRYTGVPSRFSGSGSGTDFTLTISSLQPEDFAVYYCQQHYITPLTFGQGTKLEIKR | 13 | –
2 | ADC-2 (antibody, human IgG1, kappa) heavy: not shown light: DIQLTQSPSSLSASVGDRVSITCKASQDVSIAVAWYQQKPGKAPKLLIYSASYRYTGVPDRFSGSGSGTDFTLTISSLQPEDFAVYYCQQHYITPLTFGAGTKVEIKRTVAAPSVFIFPPSDEQLKSGTASVVCLLNNFYPREAKVQWKVDNALQSGNSQESVTEQDSKDSTYSLSSTLTLSKADYEKHKVYACEVTHQGLSSPVTKSFNRGECGALPETGG | – | ~20
3 | GQhRS7 (antibody, human IgG1, kappa, unconjugated) heavy: not shown light: DIQLTQSPSSLSASVGDRVSITCKASQDVSIAVAWYQQKPGKAPKLLIYSASYRYTGVPDRFSGSGSGTDFTLTISSLQPEDFAVYYCQQHYITPLTFGAGTKVEIKRTVAAPSVFIFPPSDEQLKSGTASVVCLLNNFYPREAKVQWKVDNALQSGNSQESVTEQDSKDSTYSLSSTLTLSKADYEKHKVYACEVTHQGLSSPVTKSFNRGECGALPETGG | – | ~20
4 | Trodelvy (antibody, human IgG1, kappa, SN-38 conjugated; sites not stated, also called IMMU-132) heavy: not shown light: DIQLTQSPSSLSASVGDRVSITCKASQDVSIAVAWYQQKPGKAPKLLIYSASYRYTGVPDRFSGSGSGTDFTLTISSLQPEDFAVYYCQQHYITPLTFGAGTKVEIKRTVAAPSVFIFPPSDEQLKSGTASVVCLLNNFYPREAKVQWKVDNALQSGNSQESVTEQDSKDSTYSLSSTLTLSKADYEKHKVYACEVTHQGLSSPVTKSFNRGEC | – | ~20
5 | hRS7 (from TRODELVY) (antibody, human IgG1, kappa, expressed in HEK293F; also called Trodelvy's antibody) heavy: not shown light: DIQLTQSPSSLSASVGDRVSITCKASQDVSIAVAWYQQKPGKAPKLLIYSASYRYTGVPDRFSGSGSGTDFTLTISSLQPEDFAVYYCQQHYITPLTFGAGTKVEIKRTVAAPSVFIFPPSDEQLKSGTASVVCLLNNFYPREAKVQWKVDNALQSGNSQESVTEQDSKDSTYSLSSTLTLSKADYEKHKVYACEVTHQGLSSPVTKSFNRGEC | 1.28 | –
6 | Ab13 (antibody, human IgG1, kappa, V domains shown) VH: QVQLQQSGSELKKPGASVKVSCKASGYTFTNAGMNWVKQAPGQGLKWMGWINTDSGEPTYTDDFKGRFAFSLDTSVSTAYLQISSLKADDTAVYFCARGGFGSSYWYFDVWGQGSLVTVSS VL: DIQLTQSPSSLSASVGDRVSITCKASQDVSIAVAWYQQKPGKAPKLLIYSASYRYTGVPDRFSGSGSGTDFTLTISSLQPEDFAVYYCQQHYITPLTFGAGTKVEIKR | 8.16 | –
7 | Ab16 (antibody, human IgG1, kappa, V domains shown) VH: QVQLQQSGSELKKPGASVKVSCKASGYTFTAAGMNWVKQAPGQGLKWMGWINTYTGEPTYTDDFKGRFAFSLDTSVSTAYLQISSLKADDTAVYFCARGGFGSSYWYFDVWGQGSLVTVSS VL: DIQLTQSPSSLSASVGDRVSITCKASQDVSIAVAWYQQKPGKAPKLLIYSASYRYTGVPDRFSGSGSGTDFTLTISSLQPEDFAVYYCQQHYITPLTFGAGTKVEIKR | 13.1 | –
